# Assay results reported in the supplement of paper PMC9732359.
# ± gives the uncertainty stated by the source.
# Experiment: protein stability index of a GFP-peptide fusion (yeast GPS) (PSI 1-4); higher = more stable; sorted into four equal gates, so the index is relative within each strain
# How it was run: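 Plasmids in a pooled yeast library fused tiled 17-residue yeast protein peptides downstream of GFP and also expressed Cherry. Mid-log cultures grown without leucine were sorted into four equal gates by GFP/Cherry fluorescence ratio. Each gate's plasmids were PCR-amplified and Illumina-sequenced, and reads were matched to strains by barcodes. The protein stability index is derived by multiplying each gate's read frequency by its gate number and summing the results.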
sequence,measurement,setting,value
GKTSFFQALGVPTKIAR [RPP0],protein stability index,doa10∆,3.24 ± 0.1
same,protein stability index,pdr5∆,3.29 ± 0.091
same,protein stability index,san1∆,2.98 ± 0.11
same,protein stability index,ubr1∆,3.26 ± 0.071
IVPVISTIENVLFYIGR [COB],protein stability index,doa10∆,1.85 ± 0.059
same,protein stability index,pdr5∆,1.68 ± 0.042
same,protein stability index,san1∆,2.4 ± 0.058
same,protein stability index,ubr1∆,2.34 ± 0.056
TLGKLSTSVGWKYEDVV [RPL16B],protein stability index,doa10∆,2.82 ± 0.062
same,protein stability index,pdr5∆,2.42 ± 0.069
same,protein stability index,san1∆,2.71 ± 0.11
same,protein stability index,ubr1∆,2.81 ± 0.059
SSKAATPDTKNFFHAKK [SNF12],protein stability index,doa10∆,3.12 ± 0.058
same,protein stability index,pdr5∆,2.96 ± 0.051
same,protein stability index,san1∆,2.99 ± 0.048
same,protein stability index,ubr1∆,2.93 ± 0.047
EGRLYQVEYALESISHA [PRE9],protein stability index,doa10∆,2.09 ± 0.056
same,protein stability index,pdr5∆,2.19 ± 0.068
same,protein stability index,san1∆,1.98 ± 0.086
same,protein stability index,ubr1∆,1.85 ± 0.048
VHPVNEREPVPLGILHI [RRP45],protein stability index,pdr5∆,2.63 ± 0.16
same,protein stability index,ubr1∆,2.15 ± 0.19
LKLPADATTWRYSMSEQ [IRR1],protein stability index,doa10∆,2.68 ± 0.071
same,protein stability index,pdr5∆,2.65 ± 0.058
same,protein stability index,san1∆,2.69 ± 0.065
same,protein stability index,ubr1∆,2.5 ± 0.059
TIRYPDPNIKVNDTVKI [RPS4A],protein stability index,doa10∆,2.48 ± 0.09
same,protein stability index,pdr5∆,2.87 ± 0.097
same,protein stability index,san1∆,2.75 ± 0.1
same,protein stability index,ubr1∆,2.71 ± 0.066
KAKAQAQAQAQAQAQVY [PGD1],protein stability index,doa10∆,2.96 ± 0.11
same,protein stability index,pdr5∆,3.26 ± 0.088
same,protein stability index,san1∆,3.04 ± 0.083
same,protein stability index,ubr1∆,3 ± 0.066
EEEEDTTTTANINEVKK [NUT1],protein stability index,doa10∆,3.24 ± 0.098
same,protein stability index,pdr5∆,3.39 ± 0.11
same,protein stability index,san1∆,3.09 ± 0.084
same,protein stability index,ubr1∆,3.33 ± 0.15
DNIGEIDESLFNLLILS [YCG1],protein stability index,doa10∆,2.96 ± 0.13
same,protein stability index,pdr5∆,3.02 ± 0.11
same,protein stability index,san1∆,2.31 ± 0.16
same,protein stability index,ubr1∆,3.1 ± 0.14
QPPTNVQPTIGQLPQLP [SNF5],protein stability index,doa10∆,3.14 ± 0.055
same,protein stability index,pdr5∆,3.12 ± 0.063
same,protein stability index,san1∆,3.09 ± 0.054
same,protein stability index,ubr1∆,3.15 ± 0.043
SMQTIAETIILSSAGKN [SRB5],protein stability index,doa10∆,2.09 ± 0.045
same,protein stability index,pdr5∆,2.39 ± 0.048
same,protein stability index,san1∆,1.8 ± 0.055
same,protein stability index,ubr1∆,1.9 ± 0.029
NVQLRDVIATEPQGAVT [SMD3],protein stability index,doa10∆,2.96 ± 0.069
same,protein stability index,pdr5∆,2.98 ± 0.1
same,protein stability index,san1∆,2.39 ± 0.09
same,protein stability index,ubr1∆,2.67 ± 0.071
VDGEAVGDEFKGYVFKI [RPS6A],protein stability index,pdr5∆,3.79 ± 0.18
MNYLLDNKINEIKLLEI [CSI1],protein stability index,doa10∆,2.91 ± 0.12
same,protein stability index,pdr5∆,2.81 ± 0.098
same,protein stability index,san1∆,2.67 ± 0.069
same,protein stability index,ubr1∆,2.89 ± 0.091
VDAGIALNSMCASIPIA [RRP46],protein stability index,doa10∆,1.65 ± 0.12
same,protein stability index,pdr5∆,1.63 ± 0.12
same,protein stability index,san1∆,1.71 ± 0.15
same,protein stability index,ubr1∆,1.66 ± 0.16
SLTLSFIRHVAKLNYKN [ECM29],protein stability index,doa10∆,2.7 ± 0.092
same,protein stability index,pdr5∆,2.87 ± 0.088
same,protein stability index,san1∆,2.91 ± 0.054
same,protein stability index,ubr1∆,2.92 ± 0.048
NNIRQAICRYANVIKAL [RRP4],protein stability index,doa10∆,1.41 ± 0.11
same,protein stability index,pdr5∆,1.36 ± 0.07
same,protein stability index,san1∆,1.17 ± 0.14
same,protein stability index,ubr1∆,1.43 ± 0.14
DGDASKPAFSFGAKSDE [YJL041W/NSP1],protein stability index,doa10∆,3.32 ± 0.064
same,protein stability index,pdr5∆,3.26 ± 0.053
same,protein stability index,san1∆,3.15 ± 0.037
same,protein stability index,ubr1∆,3.43 ± 0.044
ELTKTKSSLYSAQDLLD [YIL149C/MLP2],protein stability index,doa10∆,2.67 ± 0.05
same,protein stability index,pdr5∆,2.84 ± 0.05
same,protein stability index,san1∆,2.6 ± 0.07
same,protein stability index,ubr1∆,2.83 ± 0.029
EKPQFKDGETTDANGKT [RPO26],protein stability index,doa10∆,3.36 ± 0.076
same,protein stability index,pdr5∆,3.3 ± 0.047
same,protein stability index,san1∆,3.36 ± 0.059
same,protein stability index,ubr1∆,3.28 ± 0.05
SLSEFARRRQPTDQNNQ [SNF2],protein stability index,doa10∆,2.89 ± 0.11
same,protein stability index,pdr5∆,3.12 ± 0.13
same,protein stability index,san1∆,3.1 ± 0.067
same,protein stability index,ubr1∆,2.87 ± 0.1
LQDDEDHKFPIRENKVT [BRN1],protein stability index,doa10∆,2.7 ± 0.1
same,protein stability index,pdr5∆,3.07 ± 0.083
same,protein stability index,san1∆,2.75 ± 0.074
same,protein stability index,ubr1∆,2.38 ± 0.095
IRQAIAKGLVAYHQKYV [RPS16A],protein stability index,doa10∆,1.21 ± 0.096
same,protein stability index,pdr5∆,1.27 ± 0.069
same,protein stability index,san1∆,1.41 ± 0.18
same,protein stability index,ubr1∆,1.1 ± 0.033
VLPIFTTVFFSRQKSGL [YML031W/NDC1],protein stability index,doa10∆,1.53 ± 0.075
same,protein stability index,pdr5∆,1.24 ± 0.082
same,protein stability index,san1∆,1.14 ± 0.095
same,protein stability index,ubr1∆,1.11 ± 0.077
LASFEKTTDHLFDAAFY [RPO31],protein stability index,doa10∆,2.9 ± 0.058
same,protein stability index,pdr5∆,2.79 ± 0.046
same,protein stability index,san1∆,2.96 ± 0.05
same,protein stability index,ubr1∆,3 ± 0.043
LAQLTSKLIPEVINKEI [RPS1A],protein stability index,doa10∆,2.82 ± 0.1
same,protein stability index,pdr5∆,3.28 ± 0.1
same,protein stability index,san1∆,2.92 ± 0.073
same,protein stability index,ubr1∆,2.71 ± 0.07
KKRESGVEEEEELKDSE [SNF2],protein stability index,doa10∆,3.38 ± 0.28
same,protein stability index,san1∆,3.3 ± 0.12
IAGINKKKGLDENTSGK [PRP28],protein stability index,doa10∆,3.48 ± 0.067
same,protein stability index,pdr5∆,3.47 ± 0.089
same,protein stability index,san1∆,3.44 ± 0.056
same,protein stability index,ubr1∆,3.6 ± 0.075
VFSHAQTAVTCESCSTI [RPS27A],protein stability index,doa10∆,1.47 ± 0.091
same,protein stability index,pdr5∆,1.2 ± 0.076
same,protein stability index,san1∆,1.16 ± 0.13
same,protein stability index,ubr1∆,1.51 ± 0.076
PNTRDAESEAITVTAKQ [SWI3],protein stability index,doa10∆,3.08 ± 0.075
same,protein stability index,pdr5∆,3.23 ± 0.056
same,protein stability index,san1∆,3.17 ± 0.063
same,protein stability index,ubr1∆,3.15 ± 0.05
EAKERYTDRDQDEVNKG [NNF1],protein stability index,doa10∆,3.26 ± 0.15
same,protein stability index,pdr5∆,3.28 ± 0.13
same,protein stability index,san1∆,3.3 ± 0.22
same,protein stability index,ubr1∆,3.74 ± 0.11
RELILAKKQNYKLTNDE [YCG1],protein stability index,doa10∆,3.37 ± 0.067
same,protein stability index,pdr5∆,3.35 ± 0.053
same,protein stability index,san1∆,3.23 ± 0.05
same,protein stability index,ubr1∆,3.29 ± 0.041
AEKLGSKKAEKTGTKPA [RPL4A],protein stability index,doa10∆,3.14 ± 0.067
same,protein stability index,pdr5∆,3.08 ± 0.07
same,protein stability index,san1∆,3.13 ± 0.05
same,protein stability index,ubr1∆,3.06 ± 0.072
PFTDITVEGISKLLREH [RPB2],protein stability index,doa10∆,2.27 ± 0.076
same,protein stability index,pdr5∆,2.4 ± 0.079
same,protein stability index,san1∆,2.51 ± 0.077
same,protein stability index,ubr1∆,2.42 ± 0.067
VSNSGAQDEEIHKQIVI [UBP6],protein stability index,doa10∆,3.17 ± 0.16
same,protein stability index,pdr5∆,3.5 ± 0.14
same,protein stability index,san1∆,3.08 ± 0.14
same,protein stability index,ubr1∆,3.16 ± 0.11
DKSLDSSNASFNNQGKL [MED1],protein stability index,doa10∆,2.98 ± 0.045
same,protein stability index,pdr5∆,3.07 ± 0.043
same,protein stability index,san1∆,2.68 ± 0.035
same,protein stability index,ubr1∆,2.99 ± 0.045
QQQQQQNGQQPPTTSNL [YML103C/NUP188],protein stability index,doa10∆,2.502 ± 0.02
same,protein stability index,pdr5∆,2.737 ± 0.022
same,protein stability index,san1∆,2.617 ± 0.019
same,protein stability index,ubr1∆,2.661 ± 0.02
PQLSKAGKFPTPVSHND [RPL1A],protein stability index,doa10∆,2.31 ± 0.04
same,protein stability index,pdr5∆,2.87 ± 0.048
same,protein stability index,san1∆,2.36 ± 0.048
same,protein stability index,ubr1∆,2.62 ± 0.031
KSDEAKWKPVLSHIVYF [RPN5],protein stability index,doa10∆,2.29 ± 0.067
same,protein stability index,pdr5∆,2.21 ± 0.062
same,protein stability index,san1∆,2.23 ± 0.058
same,protein stability index,ubr1∆,2.03 ± 0.047
ADKNCAKLHRISPKIWC [PUP1],protein stability index,doa10∆,2.09 ± 0.055
same,protein stability index,pdr5∆,2.1 ± 0.061
same,protein stability index,san1∆,1.94 ± 0.059
same,protein stability index,ubr1∆,2.14 ± 0.05
KELTRIPGEEVEETEVP [MED4],protein stability index,doa10∆,3.21 ± 0.16
same,protein stability index,pdr5∆,3.23 ± 0.21
same,protein stability index,san1∆,3.02 ± 0.13
DLTQLLEKERSILDDIK [SMC4],protein stability index,doa10∆,3.22 ± 0.14
same,protein stability index,pdr5∆,2.98 ± 0.08
same,protein stability index,san1∆,2.66 ± 0.13
same,protein stability index,ubr1∆,3.16 ± 0.043
KKVKSASKKSGGDVVKF [SMC4],protein stability index,doa10∆,3.09 ± 0.15
same,protein stability index,pdr5∆,3.68 ± 0.15
same,protein stability index,san1∆,2.89 ± 0.21
same,protein stability index,ubr1∆,3.12 ± 0.16
LQIAQLTLKHRQNKVQH [RPN10],protein stability index,doa10∆,2.26 ± 0.088
same,protein stability index,pdr5∆,2.23 ± 0.071
same,protein stability index,san1∆,1.74 ± 0.1
same,protein stability index,ubr1∆,1.88 ± 0.065
STGPTGAVSLNPSITRL [RRP4],protein stability index,doa10∆,2.92 ± 0.057
same,protein stability index,pdr5∆,3.05 ± 0.074
same,protein stability index,san1∆,2.88 ± 0.042
same,protein stability index,ubr1∆,3.06 ± 0.05
PIGRDGKLAKPRQLHNT [RPB2],protein stability index,doa10∆,2.89 ± 0.077
same,protein stability index,pdr5∆,2.88 ± 0.068
same,protein stability index,san1∆,2.67 ± 0.059
same,protein stability index,ubr1∆,2.84 ± 0.081
KQFFQMTPLLVNCLELL [PCI8],protein stability index,doa10∆,1.4 ± 0.034
same,protein stability index,pdr5∆,1.32 ± 0.034
same,protein stability index,san1∆,1.26 ± 0.067
same,protein stability index,ubr1∆,1.23 ± 0.025
KKTVAGGAYTVSTAAAA [RPL43A],protein stability index,doa10∆,2.43 ± 0.068
same,protein stability index,pdr5∆,2.46 ± 0.065
same,protein stability index,san1∆,2.15 ± 0.074
same,protein stability index,ubr1∆,2.15 ± 0.05
PADSTYGAYNTQIANAG [PRE4],protein stability index,doa10∆,1.8 ± 0.097
same,protein stability index,pdr5∆,2.03 ± 0.067
same,protein stability index,san1∆,2.08 ± 0.15
same,protein stability index,ubr1∆,1.69 ± 0.049
LEPGCSVLLHHKTMSIV [RPT2],protein stability index,doa10∆,1.39 ± 0.067
same,protein stability index,pdr5∆,1.58 ± 0.049
same,protein stability index,san1∆,1.38 ± 0.087
same,protein stability index,ubr1∆,1.61 ± 0.04
